Measured values reported in paper PMC8794075 (Emerging Microbes & Infections, 2022).

Molecular target: prefusion-stabilized SARS-CoV-2 S-trimer protein (wild type, Wuhan-Hu-1) (SARS-CoV-2, UniProt P0DTC2)
Assay: cell-based or functional assay

B1: MAb S3H3 (antibody, V domains shown)
VH: QVQLQQPGAELVRPGASVKLSCKASGYSFTRFWMNWVKQRPGQGLEWIGMIHPSDSETRLNQKFKDKATLTVDKSSTTAYMQLSSPTSEDSAVYYCARKDYDYDAWFAYWGQGTLVTVSA
VL: DIVLTQSPASLAVSLGQRATISCRASKSVSASVYSYMHWYQQKPGQPPKLLIYLASSLESGVPARFSGSGSGTDFTLNIHPVEEEDAATYYCHHSRELPPAFGGGTKLEIK
For B1, the “IC50 of neutralisation of WT S pseudovirus” value was 0.083 µg/mL.
